B1: hAb005LH1L1a (antibody, human IgG1, V domains shown)
VH: EVQLVQSGAEVKKPGASVKVSCKASGYTFTDYEMHWVRQAPGQGLEWMGAIDPETGNTAYIQKFKGRVTMTTDKSTSTAYMELRSLRSDDTAVYYCTRFYSYSHWGQGTTVTVSS
VL: DIVMTQTPLSLPVTPGEPASISCRSSQSLVHSDGNTYLHWYLQKPGQSPQLLIYKVSNRFSGVPDRFSGSGSGTDFTLKISRVEAEDVGVYYCSQNTHVPPTFGGGTKVEIK
notes: Humanized F3.54.12; VH H1 + VL L1a; expressed as human IgG1
B2: hAb005LH2L1b (antibody, human IgG1, V domains shown)
VH: EVQLVQSGAEVKKPGASVKVSCKASGYTFTDYEMHWVRQAPGQGLEWMGAIDPETGNTAYIQKFKGRVTLTTDKSTSTAYMELRSLRSDDTAVYYCTRFYSYSHWGQGTTVTVSS
VL: DIVMTQTPLSLPVTPGEPASISCRSSQSLVHSNRNTYLHWYLQKPGQSPQLLIYKVSNRFSGVPDRFSGSGSGTDFTLKISRVEAEDVGVYYCSQNTHVPPTFGGGTKVEIK
notes: Humanized F3.54.12; VH H2 + VL L1b; expressed as human IgG1
B3: hAb005LH1L1b (antibody, human IgG1, V domains shown)
VH: EVQLVQSGAEVKKPGASVKVSCKASGYTFTDYEMHWVRQAPGQGLEWMGAIDPETGNTAYIQKFKGRVTMTTDKSTSTAYMELRSLRSDDTAVYYCTRFYSYSHWGQGTTVTVSS
VL: DIVMTQTPLSLPVTPGEPASISCRSSQSLVHSNRNTYLHWYLQKPGQSPQLLIYKVSNRFSGVPDRFSGSGSGTDFTLKISRVEAEDVGVYYCSQNTHVPPTFGGGTKVEIK
notes: Humanized F3.54.12; VH H1 + VL L1b; expressed as human IgG1
B4: hAb005LH2L1a (antibody, human IgG1, V domains shown)
VH: EVQLVQSGAEVKKPGASVKVSCKASGYTFTDYEMHWVRQAPGQGLEWMGAIDPETGNTAYIQKFKGRVTLTTDKSTSTAYMELRSLRSDDTAVYYCTRFYSYSHWGQGTTVTVSS
VL: DIVMTQTPLSLPVTPGEPASISCRSSQSLVHSDGNTYLHWYLQKPGQSPQLLIYKVSNRFSGVPDRFSGSGSGTDFTLKISRVEAEDVGVYYCSQNTHVPPTFGGGTKVEIK
notes: Humanized F3.54.12; VH H2 + VL L1a; expressed as human IgG1
B5: F1.3.9 (antibody, human IgG1, kappa, V domains shown)
VH: QVQLQQPGTELVKPGASVKLSCKASGYTFTSYWIHWVKQRPGQGLEWIGNINPPNAGTNYNEKFKSKATLTVDKSSSTAYMQLSSLTSEDSAVYYCARGRWLLHDYWGQGTTLTVSS
VL: DIQMTQSPASLSISVGETVTITCRASENIYSNLAWYQQKQGKSPQLLVYGTKNLAEGVPSRFSGSGSGTQYSLKINSLQSEDFGNYYCQHFWGTPYTFGGGTKLEILR
notes: Human-murine chimeric antibody
B6: F1.9.19 (antibody, human IgG1, kappa, V domains shown)
VH: DVQLQESGPGLVKPSQSLSLTCSVTGYSITSGYYWNWIRQFPGNRLEWMAYISYDGINNYNPSLKNRISIARDTSTNQFFLKLNSVTSEDTATYYCATTTEVALFDHWGQGTTLTVSS
VL: DVLLTQTPLSLPVSLGDQASISCRSSQNIVHGNGNTYLEWFLQKPGQSPKLLIYKVSNRFSGVPDRFSGSGSGTDFTLKISRVEAEDLGLYYCFQASHVPWTFGGGTKLEIKR
notes: as for B5
B7: GC33 IgG (antibody, V domains shown)
VH: QVQLVQSGAEVKKPGASVKVSCKASGYTFTDYEMHWVRQAPGQGLEWMGALDPKTGDTAYSQKFKGRVTLTADKSTSTAYMELSSLTSEDTAVYYCTRFYSYTYWGQGTLVTVSS
VL: DVVMTQSPLSLPVTPGEPASISCRSSQSLVHSNRNTYLHWYLQKPGQSPQLLIYKVSNRFSGVPDRFSGSGSGTDFTLKISRVEAEDVGVYYCSQNTHVPPTFGQGTKLEIKR
notes: Control antibody expressed as complete IgG; also called codrituzumab

What was measured:
[1] = target: biotinylated labeled human GPC3 protein (produced in-house) (human, UniProt P51654 25-559, limits assumed, biotinylated (Dojindo, Cat. No. LK03); sites not stated); assay: ELISA, biotinylated human GPC3 protein
[2] = target: T1, human GPC3 on CHO-K1-human GPC3 cells (CHOK1-hGPC3.2B5) (human, UniProt P51654 25-554); assay: FACS, CHOK1-hGPC3.2B5 cells;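 also: flow cytometry of humanized antibodies binding to the cells over one hour in the cold, read as cell mean fluorescence intensity, with EC50 obtained by curve fitting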
T1 construct: whole, on cells
Method: The desired cells were expanded to a logarithmic growth phase in a T-75 cell culture flask, the medium was removed by pipetting, and the cells were washed twice with a PBS buffer, and digested with trypsin. Then a complete medium was added to stop the digestion, and the cells were blown into a single cell suspension. After counting, the cells were centrifuged, and the cell pellet was resuspended with an FACS buffer (PBS+2% fetal bovine serum) to 2×10⁶ cells/mL. The cell resuspension solution was added to a 96-well FACS reaction plate at 50 μl/well, and a humanized antibody sample to be tested was added at 50 μl/well for incubation at 4° C. for 1 h. […] After the plate was centrifuged and washed 3 times with a PBS buffer, 100 μl of the resulting solution was assayed and analyzed by FACS (FACS Canto™, purchased from BD Biosciences). Data analysis was performed by software (FlowJo) to obtain the mean fluorescence intensity (MFI) of the cells. Then, analysis was performed by software (GraphPad Prism8), data were fitted, and EC₅₀ values were calculated.

monkey GPC3-His protein [3] = target: T2, monkey GPC3-His protein (monkey); assay: SPR, antibody captured on Protein A chip, monkey GPC3-His analyte;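 also: run at 25 °C with 240 s association and up to 600 s dissociation, double-referenced, kinetics fitted to a 1:1 Langmuir binding model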
T2 construct: Bought recombinant protein; also called monkey GPC3 protein

monkey GPC3-His protein [4] = target: T2, monkey GPC3-His protein; assay: ELISA, monkey GPC3-His coated;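 also: Plate-coated antigen at 1 µg/mL, antibody binding 2 h at 37 °C, detected with HRP-labeled secondary antibody and TMB, absorbance at 450 nm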
Method: The specific method is described as follows: The antigen protein was diluted with PBS to a final concentration of 1 μg/mL, and the diluent was added to a 96-well ELISA plate at 50 μL/well. The plate was sealed with a plastic film and incubated at 4° C. overnight, washed twice with PBS the next day, and a blocking solution [PBS+2% (w/w) BSA] was added for blocking at room temperature for 2 h. […] After incubation at 37° C. for 2 h, the plate was washed 3 times with PBS. A horseradish peroxidase (HRP)-labeled secondary antibody (purchased from Merck, Cat. No. AP113P) was added for incubation at 37° C. for 1 h, and the plate was washed 5 times with PBS. A TMB substrate was added at 50 μL/well for incubation at room temperature for 10 min, then a stop solution (1.0M HCl) was added at 50 μL/well. An ELISA plate reader (Multimode Plate Reader, EnSight, purchased from Perkin Elmer) was used to read OD_{450 nm} values, with results as shown in Table 4 to Table 6, FIG. 1A, FIG. 1B, and FIG. 1C.

human GPC3-His protein = target: T3, human GPC3-His protein (human, UniProt P51654 25-559); assay: SPR, antibody captured on Protein A chip, human GPC3-His analyte;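 also: measured at 25 °C flow cell, human GPC3-His injected at five concentrations up to 200 nM, 240 s association, up to 600 s dissociation, double-referenced, fitted to Langmuir 1:1 model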
T3 construct: also called human GPC3 protein; not shown: His tag

Row | Binder | OD450 at 0.0008 nM [1] [OD450] | OD450 at 0.004 nM [1] [OD450] | OD450 at 0.02 nM [1] [OD450] | OD450 at 0.11 nM [1] [OD450] | OD450 at 0.53 nM [1] [OD450] | OD450 at 2.67 nM [1] [OD450] | OD450 at 13.33 nM [1] [OD450] | OD450 at 66.66 nM [1] [OD450] | EC50 [2] [nM] | Max MFI [2] [MFI] | further results
1 | B1 | 0.053 | 0.05 | 0.051 | 0.057 | 0.056 | 0.113 | 0.208 | 0.558 | 315 | 122 | 
2 | B2 | 0.074 | 0.194 | 0.43 | 0.856 | 1.05 | 1.04 | 1.07 | 1.16 | 0.54 | 4770 | 
3 | B3 | 0.075 | 0.172 | 0.45 | 0.812 | 1.04 | 1.16 | 1.04 | 1.13 | 0.491 | 4610 | 
4 | B4 | 0.049 | 0.049 | 0.053 | 0.048 | 0.066 | 0.148 | 0.249 | 0.589 | 118 | 153 | 
5 | B5 |  |  |  |  |  |  |  |  |  |  | Kd (monkey GPC3-His protein [3]): 1.24 nM; koff (monkey GPC3-His protein [3]): 4.74e-05 s⁻¹; kon (monkey GPC3-His protein [3]): 38200 M⁻¹ s⁻¹; OD450 at 0.0001 nM (monkey GPC3-His protein [4]): 0.04 OD450; OD450 at 0.001 nM (monkey GPC3-His protein [4]): 0.05 OD450; OD450 at 0.01 nM (monkey GPC3-His protein [4]): 0.16 OD450; OD450 at 0.1 nM (monkey GPC3-His protein [4]): 0.56 OD450; OD450 at 1 nM (monkey GPC3-His protein [4]): 1.52 OD450; OD450 at 10 nM (monkey GPC3-His protein [4]): 1.7 OD450; OD450 at 100 nM (monkey GPC3-His protein [4]): 1.82 OD450; Kd (human GPC3-His protein): 2.54 nM; koff (human GPC3-His protein): 7.28e-05 s⁻¹; kon (human GPC3-His protein): 28700 M⁻¹ s⁻¹
6 | B6 |  |  |  |  |  |  |  |  |  |  | Kd (monkey GPC3-His protein [3]): 6.61 nM; koff (monkey GPC3-His protein [3]): 0.000317 s⁻¹; kon (monkey GPC3-His protein [3]): 48000 M⁻¹ s⁻¹; OD450 at 0.0001 nM (monkey GPC3-His protein [4]): 0.04 OD450; OD450 at 0.001 nM (monkey GPC3-His protein [4]): 0.25 OD450; OD450 at 0.01 nM (monkey GPC3-His protein [4]): 0.3 OD450; OD450 at 0.1 nM (monkey GPC3-His protein [4]): 0.72 OD450; OD450 at 1 nM (monkey GPC3-His protein [4]): 1.39 OD450; OD450 at 10 nM (monkey GPC3-His protein [4]): 1.53 OD450; OD450 at 100 nM (monkey GPC3-His protein [4]): 1.5 OD450; Kd (human GPC3-His protein): 9.04 nM; koff (human GPC3-His protein): 0.000314 s⁻¹; kon (human GPC3-His protein): 34700 M⁻¹ s⁻¹
7 | B7 |  |  |  |  |  |  |  |  | 2.19 | 17000 | OD450 at 0.0004 nM [1]: 0.054 OD450; OD450 at 0.002 nM [1]: 0.067 OD450; OD450 at 0.011 nM [1]: 0.127 OD450; OD450 at 0.056 nM [1]: 0.442 OD450; OD450 at 0.28 nM [1]: 0.993 OD450; OD450 at 1.39 nM [1]: 1.5 OD450; OD450 at 6.94 nM [1]: 1.36 OD450; OD450 at 34.72 nM [1]: 1.3 OD450

Reference: US20260116991A1 (HAINAN SIMCERE ZAIMING PHARMACEUTICAL, published 2026)
